*1 amine or outer side, *2 acyl side, *3 side chain or, on linkers, in order; H or OH if unused. Bridges are numbered along the chain shown (N, C = ends). [ ]: non-standard residue; d: D form. The star is where a group is joined. C20 diacid = O=C(O)CCCCCCCCCCCCCCCCCCC(=O)*; γGlu = O=C(O)[C@H](CCC(=O)[*:2])N[*:1]; Hyp = O=C(O)[C@@H]1C[C@@H](O)CN1; NMeI = CC[C@H](C)[C@H](NC)C(=O)O; Aad = N[C@@H](CCCC(=O)O)C(=O)O; Sar = CNCC(=O)O
T1: human amylin receptor 3 (hAMYR3), hCTR2 co-expressed with human receptor activity modifying protein 3 (hRAMP3) (human, UniProt P30988 25-474; O60896 24-148)
T1 sequence (looked up) 1: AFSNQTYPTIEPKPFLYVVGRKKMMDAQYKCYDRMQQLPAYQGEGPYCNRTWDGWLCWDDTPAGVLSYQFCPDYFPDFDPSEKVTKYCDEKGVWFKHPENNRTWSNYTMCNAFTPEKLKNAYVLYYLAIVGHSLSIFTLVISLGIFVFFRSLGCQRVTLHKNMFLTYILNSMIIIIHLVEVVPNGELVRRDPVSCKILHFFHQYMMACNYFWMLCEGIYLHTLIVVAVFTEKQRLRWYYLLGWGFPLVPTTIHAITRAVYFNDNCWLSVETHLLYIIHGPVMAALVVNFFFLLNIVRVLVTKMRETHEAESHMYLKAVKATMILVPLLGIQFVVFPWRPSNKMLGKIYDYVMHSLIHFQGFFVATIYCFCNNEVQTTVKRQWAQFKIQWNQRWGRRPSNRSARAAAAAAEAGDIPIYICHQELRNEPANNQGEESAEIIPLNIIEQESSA
T1 sequence (looked up) 2: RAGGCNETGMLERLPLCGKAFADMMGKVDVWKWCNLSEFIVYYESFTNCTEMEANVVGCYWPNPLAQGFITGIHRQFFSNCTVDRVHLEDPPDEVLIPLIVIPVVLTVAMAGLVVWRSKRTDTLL


biological target: T1, human amylin receptor 3 (hAMYR3), hCTR2 …; assay: cell-based or functional assay

Row | Binder | hAMYR3 EC50 (nM); cAMP induction [nM]
1 | {C20 diacid}-[γGlu]RCNTATCATQRLAHFLQRSSF[Sar]A[NMeI]LSSTEVGS[Aad]T[Hyp]-NH2 (disulfide 3-8; SMILES CC[C@H](C)[C@@H](C(=O)N[C@@H](CC(C)C)C(=O)N[C@@H](CO)C(=O)N[C@@H](CO)C(=O)N[C@H](C(=O)N[C@@H](CCC(=O)O)C(=O)N[C@H](C(=O)NCC(=O)N[C@@H](CO)C(=O)N[C@@H](CCCC(=O)O)C(=O)N[C@H](C(=O)N1C[C@H](O)C[C@H]1C(N)=O)[C@@H](C)O)C(C)C)[C@@H](C)O)N(C)C(=O)[C@H](C)NC(=O)CN(C)C(=O)[C@H](Cc1ccccc1)NC(=O)[C@H](CO)NC(=O)[C@H](CO)NC(=O)[C@H](CCCNC(=N)N)NC(=O)[C@H](CCC(N)=O)NC(=O)[C@H](CC(C)C)NC(=O)[C@H](Cc1ccccc1)NC(=O)[C@H](Cc1c[nH]cn1)NC(=O)[C@H](C)NC(=O)[C@H](CC(C)C)NC(=O)[C@H](CCCNC(=N)N)NC(=O)[C@H](CCC(N)=O)NC(=O)[C@@H](NC(=O)[C@H](C)NC(=O)[C@@H]1CSSC[C@H](NC(=O)[C@H](CCCNC(=N)N)NC(=O)CC[C@H](NC(=O)CCCCCCCCCCCCCCCCCCC(=O)O)C(=O)O)C(=O)N[C@@H](CC(N)=O)C(=O)N[C@@H]([C@@H](C)O)C(=O)N[C@@H](C)C(=O)N[C@@H]([C@@H](C)O)C(=O)N1)[C@@H](C)O) [[19CD]-isoGlu-R-C( )-NTAT-C( )-ATQRLAHFLQRSSF-Gly(Me)-A-Ile(Me)-LSSTEVGS-Aad-T-Hyp-NH2 (Compd. 75)] | 0.26
2 | {C20 diacid}-[γGlu]RCNTATCATQRLAHFLQRSSF[Sar]A[NMeI]LSSTEVGSGT[Hyp]-NH2 (disulfide 3-8; SMILES CC[C@H](C)[C@@H](C(=O)N[C@@H](CC(C)C)C(=O)N[C@@H](CO)C(=O)N[C@@H](CO)C(=O)N[C@H](C(=O)N[C@@H](CCC(=O)O)C(=O)N[C@H](C(=O)NCC(=O)N[C@@H](CO)C(=O)NCC(=O)N[C@H](C(=O)N1C[C@H](O)C[C@H]1C(N)=O)[C@@H](C)O)C(C)C)[C@@H](C)O)N(C)C(=O)[C@H](C)NC(=O)CN(C)C(=O)[C@H](Cc1ccccc1)NC(=O)[C@H](CO)NC(=O)[C@H](CO)NC(=O)[C@H](CCCNC(=N)N)NC(=O)[C@H](CCC(N)=O)NC(=O)[C@H](CC(C)C)NC(=O)[C@H](Cc1ccccc1)NC(=O)[C@H](Cc1c[nH]cn1)NC(=O)[C@H](C)NC(=O)[C@H](CC(C)C)NC(=O)[C@H](CCCNC(=N)N)NC(=O)[C@H](CCC(N)=O)NC(=O)[C@@H](NC(=O)[C@H](C)NC(=O)[C@@H]1CSSC[C@H](NC(=O)[C@H](CCCNC(=N)N)NC(=O)CC[C@H](NC(=O)CCCCCCCCCCCCCCCCCCC(=O)O)C(=O)O)C(=O)N[C@@H](CC(N)=O)C(=O)N[C@@H]([C@@H](C)O)C(=O)N[C@@H](C)C(=O)N[C@@H]([C@@H](C)O)C(=O)N1)[C@@H](C)O) [[19CD]-isoGlu-R-C( )-NTAT-C( )-ATQRLAHFLQRSSF-Gly(Me)-A-Ile(Me)-LSSTEVGSGT-Hyp-NH2 (Compd. 71)] | 0.18
3 | {C20 diacid}-[γGlu]RCGTATCATERLAHFLQRF[Sar]A[NMeI]LSSTEVGSNT[Hyp]-NH2 (disulfide 3-8; SMILES CC[C@H](C)[C@@H](C(=O)N[C@@H](CC(C)C)C(=O)N[C@@H](CO)C(=O)N[C@@H](CO)C(=O)N[C@H](C(=O)N[C@@H](CCC(=O)O)C(=O)N[C@H](C(=O)NCC(=O)N[C@@H](CO)C(=O)N[C@@H](CC(N)=O)C(=O)N[C@H](C(=O)N1C[C@H](O)C[C@H]1C(N)=O)[C@@H](C)O)C(C)C)[C@@H](C)O)N(C)C(=O)[C@H](C)NC(=O)CN(C)C(=O)[C@H](Cc1ccccc1)NC(=O)[C@H](CCCNC(=N)N)NC(=O)[C@H](CCC(N)=O)NC(=O)[C@H](CC(C)C)NC(=O)[C@H](Cc1ccccc1)NC(=O)[C@H](Cc1c[nH]cn1)NC(=O)[C@H](C)NC(=O)[C@H](CC(C)C)NC(=O)[C@H](CCCNC(=N)N)NC(=O)[C@H](CCC(=O)O)NC(=O)[C@@H](NC(=O)[C@H](C)NC(=O)[C@@H]1CSSC[C@H](NC(=O)[C@H](CCCNC(=N)N)NC(=O)CC[C@H](NC(=O)CCCCCCCCCCCCCCCCCCC(=O)O)C(=O)O)C(=O)NCC(=O)N[C@@H]([C@@H](C)O)C(=O)N[C@@H](C)C(=O)N[C@@H]([C@@H](C)O)C(=O)N1)[C@@H](C)O) [[19CD]-isoGlu-R-C( )-GTAT-C( )-ATERLAHFLQRF-Gly(Me)-A-Ile(Me)-LSSTEVGSNT-Hyp-NH2 (Compd. 77)] | 0.42
4 | {C20 diacid}-[γGlu]RCNTATCATQRLAHFLQRSSF[Sar]A[NMeI]LSSTEVGSTT[Hyp]-NH2 (disulfide 3-8; SMILES CC[C@H](C)[C@@H](C(=O)N[C@@H](CC(C)C)C(=O)N[C@@H](CO)C(=O)N[C@@H](CO)C(=O)N[C@H](C(=O)N[C@@H](CCC(=O)O)C(=O)N[C@H](C(=O)NCC(=O)N[C@@H](CO)C(=O)N[C@H](C(=O)N[C@H](C(=O)N1C[C@H](O)C[C@H]1C(N)=O)[C@@H](C)O)[C@@H](C)O)C(C)C)[C@@H](C)O)N(C)C(=O)[C@H](C)NC(=O)CN(C)C(=O)[C@H](Cc1ccccc1)NC(=O)[C@H](CO)NC(=O)[C@H](CO)NC(=O)[C@H](CCCNC(=N)N)NC(=O)[C@H](CCC(N)=O)NC(=O)[C@H](CC(C)C)NC(=O)[C@H](Cc1ccccc1)NC(=O)[C@H](Cc1c[nH]cn1)NC(=O)[C@H](C)NC(=O)[C@H](CC(C)C)NC(=O)[C@H](CCCNC(=N)N)NC(=O)[C@H](CCC(N)=O)NC(=O)[C@@H](NC(=O)[C@H](C)NC(=O)[C@@H]1CSSC[C@H](NC(=O)[C@H](CCCNC(=N)N)NC(=O)CC[C@H](NC(=O)CCCCCCCCCCCCCCCCCCC(=O)O)C(=O)O)C(=O)N[C@@H](CC(N)=O)C(=O)N[C@@H]([C@@H](C)O)C(=O)N[C@@H](C)C(=O)N[C@@H]([C@@H](C)O)C(=O)N1)[C@@H](C)O) [[19CD]-isoGlu-R-C( )-NTAT-C( )-ATQRLAHFLQRSSF-Gly(Me)-A-Ile(Me)-LSSTEVGSTT-Hyp-NH2 (Compd. 73)] | 0.24

Next, values leading:

Row | hAMYR3 EC50 (nM); cAMP induction [nM] | Binder
5 | 0.39 | {C20 diacid}-[γGlu]RCPTATCATERLAHFLQRSSF[Sar]A[NMeI]LSSTEVGSTT[Hyp]-NH2 (disulfide 3-8; SMILES CC[C@H](C)[C@@H](C(=O)N[C@@H](CC(C)C)C(=O)N[C@@H](CO)C(=O)N[C@@H](CO)C(=O)N[C@H](C(=O)N[C@@H](CCC(=O)O)C(=O)N[C@H](C(=O)NCC(=O)N[C@@H](CO)C(=O)N[C@H](C(=O)N[C@H](C(=O)N1C[C@H](O)C[C@H]1C(N)=O)[C@@H](C)O)[C@@H](C)O)C(C)C)[C@@H](C)O)N(C)C(=O)[C@H](C)NC(=O)CN(C)C(=O)[C@H](Cc1ccccc1)NC(=O)[C@H](CO)NC(=O)[C@H](CO)NC(=O)[C@H](CCCNC(=N)N)NC(=O)[C@H](CCC(N)=O)NC(=O)[C@H](CC(C)C)NC(=O)[C@H](Cc1ccccc1)NC(=O)[C@H](Cc1c[nH]cn1)NC(=O)[C@H](C)NC(=O)[C@H](CC(C)C)NC(=O)[C@H](CCCNC(=N)N)NC(=O)[C@H](CCC(=O)O)NC(=O)[C@@H](NC(=O)[C@H](C)NC(=O)[C@@H]1CSSC[C@H](NC(=O)[C@H](CCCNC(=N)N)NC(=O)CC[C@H](NC(=O)CCCCCCCCCCCCCCCCCCC(=O)O)C(=O)O)C(=O)N2CCC[C@H]2C(=O)N[C@@H]([C@@H](C)O)C(=O)N[C@@H](C)C(=O)N[C@@H]([C@@H](C)O)C(=O)N1)[C@@H](C)O) [[19CD]-isoGlu-R-C( )-PTAT-C( )-ATERLAHFLQRSSF-Gly(Me)-A-Ile(Me)-LSSTEVGSTT-Hyp-NH2 (Compd. 74)]
6 | 0.49 | {C20 diacid}-[γGlu]RCPTATCATERLAHFLQRSSF[Sar]A[NMeI]LSSTEVGS[Aad]T[Hyp]-NH2 (disulfide 3-8; SMILES CC[C@H](C)[C@@H](C(=O)N[C@@H](CC(C)C)C(=O)N[C@@H](CO)C(=O)N[C@@H](CO)C(=O)N[C@H](C(=O)N[C@@H](CCC(=O)O)C(=O)N[C@H](C(=O)NCC(=O)N[C@@H](CO)C(=O)N[C@@H](CCCC(=O)O)C(=O)N[C@H](C(=O)N1C[C@H](O)C[C@H]1C(N)=O)[C@@H](C)O)C(C)C)[C@@H](C)O)N(C)C(=O)[C@H](C)NC(=O)CN(C)C(=O)[C@H](Cc1ccccc1)NC(=O)[C@H](CO)NC(=O)[C@H](CO)NC(=O)[C@H](CCCNC(=N)N)NC(=O)[C@H](CCC(N)=O)NC(=O)[C@H](CC(C)C)NC(=O)[C@H](Cc1ccccc1)NC(=O)[C@H](Cc1c[nH]cn1)NC(=O)[C@H](C)NC(=O)[C@H](CC(C)C)NC(=O)[C@H](CCCNC(=N)N)NC(=O)[C@H](CCC(=O)O)NC(=O)[C@@H](NC(=O)[C@H](C)NC(=O)[C@@H]1CSSC[C@H](NC(=O)[C@H](CCCNC(=N)N)NC(=O)CC[C@H](NC(=O)CCCCCCCCCCCCCCCCCCC(=O)O)C(=O)O)C(=O)N2CCC[C@H]2C(=O)N[C@@H]([C@@H](C)O)C(=O)N[C@@H](C)C(=O)N[C@@H]([C@@H](C)O)C(=O)N1)[C@@H](C)O) [[19CD]-isoGlu-R-C( )-PTAT-C( )-ATERLAHFLQRSSF-Gly(Me)-A-Ile(Me)-LSSTEVGS-Aad-T-Hyp-NH2 (Compd. 76)]
7 | 0.27 | {C20 diacid}-[γGlu]RCPTATCATERLAHFLQRSSF[Sar]A[NMeI]LSSTEVGSGT[Hyp]-NH2 (disulfide 3-8; SMILES CC[C@H](C)[C@@H](C(=O)N[C@@H](CC(C)C)C(=O)N[C@@H](CO)C(=O)N[C@@H](CO)C(=O)N[C@H](C(=O)N[C@@H](CCC(=O)O)C(=O)N[C@H](C(=O)NCC(=O)N[C@@H](CO)C(=O)NCC(=O)N[C@H](C(=O)N1C[C@H](O)C[C@H]1C(N)=O)[C@@H](C)O)C(C)C)[C@@H](C)O)N(C)C(=O)[C@H](C)NC(=O)CN(C)C(=O)[C@H](Cc1ccccc1)NC(=O)[C@H](CO)NC(=O)[C@H](CO)NC(=O)[C@H](CCCNC(=N)N)NC(=O)[C@H](CCC(N)=O)NC(=O)[C@H](CC(C)C)NC(=O)[C@H](Cc1ccccc1)NC(=O)[C@H](Cc1c[nH]cn1)NC(=O)[C@H](C)NC(=O)[C@H](CC(C)C)NC(=O)[C@H](CCCNC(=N)N)NC(=O)[C@H](CCC(=O)O)NC(=O)[C@@H](NC(=O)[C@H](C)NC(=O)[C@@H]1CSSC[C@H](NC(=O)[C@H](CCCNC(=N)N)NC(=O)CC[C@H](NC(=O)CCCCCCCCCCCCCCCCCCC(=O)O)C(=O)O)C(=O)N2CCC[C@H]2C(=O)N[C@@H]([C@@H](C)O)C(=O)N[C@@H](C)C(=O)N[C@@H]([C@@H](C)O)C(=O)N1)[C@@H](C)O) [[19CD]-isoGlu-R-C( )-PTAT-C( )-ATERLAHFLQRSSF-Gly(Me)-A-Ile(Me)-LSSTEVGSGT-Hyp-NH2 (Compd. 72)]
